Test results: article PMC6168597, “Mutations at the hydrophobic core affect Hal3 trimer stability, reducing its Ppz1 inhibitory capacity but not its PPCDC moonlighting function” (Scientific Reports, 2018)
Numbering of substitutions follows the chain as printed. Names may count otherwise. One block for each binder: values may come before it.

Tests used:
[1] = molecular target: the molecule itself; assay: cross-linking; purified GST-free proteins (1 or 2 ug) treated with 0.01% glutaraldehyde, SDS-PAGE, Coomassie staining
[2] = molecular target: T1, GST-fused full length Ppz1 (S. cerevisiae, UniProt P26570 1-692); assay: pull-down; 4 ug GST-Ppz1 or GST-Ppz1-Cter on glutathione-agarose beads, 600 ug protein extract of IM021 yeast expressing HA-tagged ScHal3 versions, anti-HA immunoblot; signal related to Ponceau-stained bait, native ScHal3 as the unit; conditions: one partner purified
T1 construct: Ser/Thr protein phosphatase Ppz1, S. cerevisiae, full length; also called GST-Ppz1; source: E. coli BL21 (DE3) RIL, purified on glutathione-agarose
T1 sequence (looked up): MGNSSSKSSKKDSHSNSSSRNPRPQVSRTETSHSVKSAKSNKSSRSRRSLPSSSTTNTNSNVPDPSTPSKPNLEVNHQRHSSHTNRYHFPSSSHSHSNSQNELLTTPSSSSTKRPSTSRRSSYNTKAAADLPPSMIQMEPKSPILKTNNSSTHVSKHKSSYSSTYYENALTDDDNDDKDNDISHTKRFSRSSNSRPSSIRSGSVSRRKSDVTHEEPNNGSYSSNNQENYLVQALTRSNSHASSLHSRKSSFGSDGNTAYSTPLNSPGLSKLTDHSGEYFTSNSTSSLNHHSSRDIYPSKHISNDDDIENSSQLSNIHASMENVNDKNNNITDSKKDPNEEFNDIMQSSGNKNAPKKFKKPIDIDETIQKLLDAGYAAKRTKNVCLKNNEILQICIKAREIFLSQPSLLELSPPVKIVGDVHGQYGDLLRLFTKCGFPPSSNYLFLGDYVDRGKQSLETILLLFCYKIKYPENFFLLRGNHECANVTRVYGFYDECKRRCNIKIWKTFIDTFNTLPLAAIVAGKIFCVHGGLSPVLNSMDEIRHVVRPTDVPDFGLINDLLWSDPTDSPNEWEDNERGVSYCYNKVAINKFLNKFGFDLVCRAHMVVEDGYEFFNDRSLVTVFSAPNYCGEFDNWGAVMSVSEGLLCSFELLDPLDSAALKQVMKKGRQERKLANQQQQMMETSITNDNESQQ

B1: Arabidopsis thaliana Hal3 (AtHal3a), native, recombinant, GST removed (enzyme, UniProt Q9SWE5 1-209, looked up)
chain: MENGKRDRQDMEVNTTPRKPRVLLAASGSVAAIKFGNLCHCFTEWAEVRAVVTKSSLHFLDKLSLPQEVTLYTDEDEWSSWNKIGDPVLHIELRRWADVLVIAPLSANTLGKIAGGLCDNLLTCIIRAWDYTKPLFVAPAMNTLMWNNPFTERHLLSLDELGITLIPPIKKRLACGDYGNGAMAEPSLIYSTVRLFWESQAHQQTGGTS
notes: AtHal3a, Arabidopsis thaliana, wild type ORF amplified from the AtHal3a cDNA and cloned into pGEX-6P-1; Flavoprotein (FMN); Theoretical mass of the trimer ~69 kDa; also called native AtHal3; source: E. coli BL21 (DE3) RIL, GST fusion purified on glutathione-agarose, GST cleaved with PreScission protease
stoichiometry N [1]: 3

B2: AtHal3 L117E, recombinant, GST removed (enzyme, Arabidopsis thaliana, UniProt Q9SWE5 1-209, looked up)
chain: B1 chain with L117E
notes: AtHal3a, Arabidopsis thaliana, ORF in pGEX-6P-1 with L117E; source: E. coli BL21 (DE3) RIL, GST fusion purified on glutathione-agarose, GST cleaved with PreScission protease
stoichiometry N [1]: 3

B3: AtHal3 G115N L117E, recombinant, GST removed (enzyme, Arabidopsis thaliana, UniProt Q9SWE5 1-209, looked up)
chain: B1 chain with G115N, L117E
notes: AtHal3a, Arabidopsis thaliana, ORF in pGEX-6P-1 with G115N and L117E; source: E. coli BL21 (DE3) RIL, GST fusion purified on glutathione-agarose, GST cleaved with PreScission protease
stoichiometry N [1]: 3

interaction relative to native ScHal3 [2]: ~50%
B4: HA-tagged ScHal3 L403N L405E expressed in S. cerevisiae from pWS93 (natural protein, UniProt P36024 1-562, looked up)
chain: MTAVASTSGKQDADHNQSIECPRFSRGQKEILLDHEDAKGKDSIINSPVSGRQSISPTLSNATTTTTKSIMNATGTSGAVVSNTPEPGLKRVPAVTFSDLKQQQKQDSLTQLKNDSERTKSPNSNPAPVSNSIPGNHAVIPNHTNTSRTTQLSGSPLVNEMKDYDPKKKDSALKIVDTMKPDKIMATSTPISRENNKVTAKAPTSITLRKEDAQDQANNVSGQINVRSTPEETPVKQSVIPSIIPKRENSKNLDPRLPQDDGKLHVLFGATGSLSVFKIKPMIKKLEEIYGRDRISIQVILTQSATQFFEQRYTKKIIKSSEKLNKMSQYESTPATPVTPTPGQCNMAQVVELPPHIQLWTDQDEWDAWKQRTDPVLHIELRRWADILVVAPLTANTLSKIANGECDNLLTSVIRAWNPSYPILLAPSMVSSTFNSMMTKKQLQTIKEEMSWVTVFKPSEKVMDINGDIGLGGMMDWNEIVNKIVMKLGGYPKNNEEEDDDEDEEEDDDEEEDTEDKNENNNDDDDDDDDDDDDDDDDDDDDDDDDEDEDEAETPGIIDKHQ
notes: Hal3 (Sis2), S. cerevisiae, with L403N and L405E; insert released from the pGEX construct and cloned into pWS93; also called the double mutated variant; source: S. cerevisiae IM021 (ppz1 hal3), expressed from pWS93, in protein extract

B5: ScHal3 L403N, recombinant, GST removed (natural protein, S. cerevisiae, UniProt P36024 1-562, looked up)
chain: B4 chain with E405L
notes: Hal3 (Sis2), S. cerevisiae, in pGEX-6P-1 with L403N; also called the L403 variant; source: E. coli BL21 (DE3) RIL, GST fusion purified on glutathione-agarose, GST cleaved with PreScission protease
stoichiometry N [1]: 3

B6: S. cerevisiae Hal3 (ScHal3), native, recombinant, GST removed (natural protein, UniProt P36024 1-562, looked up)
chain: B4 chain with N403L, E405L
notes: the methods speak of 'each full-length recombinant protein' and the predicted homotrimer is ~190 kDa; also called native ScHal3; WT; source: E. coli BL21 (DE3) RIL, GST fusion purified on glutathione-agarose, GST cleaved with PreScission protease
stoichiometry N [1]: 3

interaction relative to native ScHal3 [2]: ~50%
B7: HA-tagged ScHal3 L405E expressed in S. cerevisiae from pWS93 (natural protein, UniProt P36024 1-562, looked up)
chain: B4 chain with N403L
notes: Hal3 (Sis2), S. cerevisiae, with L405E; insert released from the pGEX construct and cloned into pWS93; source: S. cerevisiae IM021 (ppz1 hal3), expressed from pWS93, in protein extract
